# Experimental data as given in patent publication US20120034228A1 (MICROMET, published 2012).
# T1: 1-27 CD3-EpCAM comprising the human 27 mer (human; cynomolgus)
# T1 construct: on transfected cells
# T1 chain: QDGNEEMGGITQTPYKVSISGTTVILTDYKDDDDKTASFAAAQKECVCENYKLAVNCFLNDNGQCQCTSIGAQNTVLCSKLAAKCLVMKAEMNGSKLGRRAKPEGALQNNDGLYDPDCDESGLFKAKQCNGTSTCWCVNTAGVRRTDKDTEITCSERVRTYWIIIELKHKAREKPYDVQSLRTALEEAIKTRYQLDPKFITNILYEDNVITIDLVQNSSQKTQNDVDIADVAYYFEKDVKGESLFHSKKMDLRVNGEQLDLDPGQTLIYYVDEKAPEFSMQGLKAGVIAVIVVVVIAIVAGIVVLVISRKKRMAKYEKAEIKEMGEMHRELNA
# T2: 1-27 CD3-EpCAM comprising the marmoset 27 mer (Callithrix jacchus; cynomolgus)
# T2 construct: on transfected cells
# T2 chain: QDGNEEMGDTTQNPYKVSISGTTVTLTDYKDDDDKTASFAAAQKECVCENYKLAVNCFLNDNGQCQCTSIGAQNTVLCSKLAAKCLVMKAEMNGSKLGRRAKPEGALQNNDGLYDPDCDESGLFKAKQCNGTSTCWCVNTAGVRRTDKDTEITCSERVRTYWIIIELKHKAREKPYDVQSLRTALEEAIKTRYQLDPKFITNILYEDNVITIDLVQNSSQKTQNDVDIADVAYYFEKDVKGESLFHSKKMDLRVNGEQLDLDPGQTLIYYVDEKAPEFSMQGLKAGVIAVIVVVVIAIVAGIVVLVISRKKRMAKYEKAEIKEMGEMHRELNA
# T3: 1-27 CD3-EpCAM comprising the squirrel monkey 27 mer (Saimiri sciureus; cynomolgus)
# T3 construct: on transfected cells
# T3 chain: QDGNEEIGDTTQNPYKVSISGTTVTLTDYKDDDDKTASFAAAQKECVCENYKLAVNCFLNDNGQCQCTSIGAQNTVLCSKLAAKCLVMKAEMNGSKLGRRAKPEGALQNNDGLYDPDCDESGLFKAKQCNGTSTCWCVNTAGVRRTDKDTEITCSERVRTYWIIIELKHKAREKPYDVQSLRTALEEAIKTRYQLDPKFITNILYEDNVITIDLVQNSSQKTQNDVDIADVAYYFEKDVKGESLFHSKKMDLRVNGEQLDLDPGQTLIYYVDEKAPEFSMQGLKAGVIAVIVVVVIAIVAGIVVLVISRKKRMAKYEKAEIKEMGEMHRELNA
# Key:
# [1] = target: T4, 1-27 CD3-Fc (human); experiment: ELISA on captured 1-27 CD3-Fc
# T4 construct: aa 1-27 of mature human CD3 epsilon, hinge and Fc gamma of human IgG1, His6; also called human CD3 epsilon (aa 1-27)-Fc fusion protein; 27 aa huCD3E
# [2] = target: T1, 1-27 CD3-EpCAM comprising the human 27 …; experiment: FACS on transfected 293-HEK cells
# [3] = target: T2, 1-27 CD3-EpCAM comprising the marmoset …; experiment: FACS on transfected 293-HEK cells
# [4] = target: T3, 1-27 CD3-EpCAM comprising the squirrel …; experiment: FACS on transfected 293-HEK cells
# [5] = target: human FAPalpha (on CHO cells) (human, UniProt Q12884 1-760); experiment: FACS on CHO cells
# [6] = target: macaque FAPalpha (on CHO cells) (macaque (Cynomolgus)); experiment: FACS on CHO cells
# [7] = target: T5, human CD3 (on the human CD3 positive T cell leukemia cell line HPB-ALL) (human, UniProt P07766 23-207); experiment: FACS on HPB-ALL
# T5 construct: whole, on cells; native CD3 complex on T cells; also called human CD3 epsilon
# T5 sequence (P07766 23-207): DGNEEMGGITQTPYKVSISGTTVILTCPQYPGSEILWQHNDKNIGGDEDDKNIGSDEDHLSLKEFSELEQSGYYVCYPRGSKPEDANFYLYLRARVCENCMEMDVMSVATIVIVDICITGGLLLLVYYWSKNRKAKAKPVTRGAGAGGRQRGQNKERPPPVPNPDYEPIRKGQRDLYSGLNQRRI
# macaque FAPalpha (on CHO cells) (macaque (Cynomolgus)), sequence (chain, as listed by the source): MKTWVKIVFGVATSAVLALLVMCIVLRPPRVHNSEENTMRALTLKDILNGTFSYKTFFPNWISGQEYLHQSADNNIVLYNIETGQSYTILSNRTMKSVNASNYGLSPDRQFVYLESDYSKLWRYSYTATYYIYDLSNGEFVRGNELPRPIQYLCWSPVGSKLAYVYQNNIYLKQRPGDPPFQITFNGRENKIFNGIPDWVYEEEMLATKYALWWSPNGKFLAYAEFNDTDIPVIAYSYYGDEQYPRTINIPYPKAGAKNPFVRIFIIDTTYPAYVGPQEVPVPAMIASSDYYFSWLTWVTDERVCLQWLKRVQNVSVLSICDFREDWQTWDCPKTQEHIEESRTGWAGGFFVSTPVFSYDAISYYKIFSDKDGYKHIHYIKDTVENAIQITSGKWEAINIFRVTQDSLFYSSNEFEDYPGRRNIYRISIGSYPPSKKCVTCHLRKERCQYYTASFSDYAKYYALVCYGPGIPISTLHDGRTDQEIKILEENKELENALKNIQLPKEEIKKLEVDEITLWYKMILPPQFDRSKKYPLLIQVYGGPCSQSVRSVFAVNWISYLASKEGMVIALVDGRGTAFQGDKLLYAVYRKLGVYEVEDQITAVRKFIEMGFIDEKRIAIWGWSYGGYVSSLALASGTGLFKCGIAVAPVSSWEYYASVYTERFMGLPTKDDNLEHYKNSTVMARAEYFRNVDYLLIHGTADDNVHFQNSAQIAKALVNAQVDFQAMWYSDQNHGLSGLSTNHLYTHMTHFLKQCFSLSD
binding result [5],binding result [6],Binder,also measured
–,–,"A2J HLP (scFv, crude periplasmic preparation, Flag and His6 tags) scFv: EVQLLESGGGLVQPGGSLKLSCAASGFTFNVYAMNWVRQAPGKGLEWVARIRSKYNNYATYYADSVKKRFTISRDDSKNTAYLQMNNLKTEDTAVYYCVRHGNFGNSYLSWWAYWGQGTLVTVSSGGGGSGGGGSGGGGSELVVTQEPSLTVSPGGTVTLTCRSSTGAVTSGYYPNWVQQKPGQAPRGLIGATDMRPSGTPARFSGSLLGGKAALTLSGVQPEDEAEYYCALWYSNRWVFGGGTKLTVL",binding result [1]: binds
–,–,"E2M HLP (scFv, crude periplasmic preparation, Flag and His6 tags) scFv: EVQLLESGGGLVQPGGSLKLSCAASGFTFNGYAMNWVRQAPGKGLEWVARIRSKYNNYATYYADSVKERFTISRDDSKNTAYLQMNNLKTEDTAVYYCVRHRNFGNSYLSWFAYWGQGTLVTVSSGGGGSGGGGSGGGGSELVVTQEPSLTVSPGGTVTLTCRSSTGAVTSGYYPNWVQQKPGQAPRGLIGATDMRPSGTPARFSGSLLGGKAALTLSGVQPEDEAEYYCALWYSNRWVFGGGTKLTVL",binding result [1]: binds; binding result [2]: binds; binding result [3]: binds; binding result [4]: binds
binds,binds,"86D2HL (scFv, periplasmic preparation) scFv: EVQLLESGGGLVQPGGSLKLSCAASGFDFSTYWMSWVRQAPGKGLEWIGEINPDSSTINYTPSLKDKFIISRDNAKNTLYLQMNKVRSEDTALYYCAGGYYRYPYYYTMDYWGQGTTVTVSSGGGGSGGGGSGGGGSELVMTQSPASLSASVGETVTITCRASGNIHNYLAWYQQKQGKSPQLLVYNAKTLADGVPSRFSGSGSGTQYSLKINSLQPEDFGSYYCQHFWSTPYTFGGGTKLEIK",–
binds,binds,"86F12HL (scFv, periplasmic preparation) scFv: EVQLLESGGGLVQPGGSLNLSCAASGFDFSTYWMSWVRQAPGKGLEWIGEINPDSSTINYTPSLKDKFIISRDNAKNTLYLQMNKVRSDDTALYYCAGGYYRYPYYYTMDYWGQGTTVTVSSGGGGSGGGGSGGGGSELQMTQSPASLSASVGETVTITCRASGNIHNYLAWYQQKQGKSPQLLVYNAKTLADGVPSRFSGSGSGTQYSLKINSLQPEDFGSYYCQHFWSTPYTFGGGTKLEIK",–
binds,binds,"86F10HL (scFv, periplasmic preparation) scFv: EVQLLESGGGLVQPGGSLKLSCAASGFDFSTYWMSWVRQAPGKGLEWIGEINPDSSTINYTPSLKDKFIISRDNAKNTLYLQMNKVRSDDTALYYCAGGYYRYPYYYTMDYWGQGTTVTVSSGGGGSGGGGSGGGGSELVMTQSPSSLSASVGETVTITCRASGNIHNYLAWYQQKQGKSPQLLVYNAKTLADGVPSRFSGSGSGTQYSLKINSLQPEDFGSYYCQHFWSTPYTFGGGTKLEIK",–
binds,binds,"87G9HL (scFv, periplasmic preparation) scFv: EVQLLESGGGLVQPGGSLKLSCAASGFDFSRYWMSWVRQAPGKGLEWIGEINPDSSTINYTPSLKDKFIISRDNAKNTLYLQMSKVRSEDTALYYCAGGYYRYPYYYTMDYWGQGTTVTVSSGGGGSGGGGSGGGGSELVMTQSPASLSASVGETVTITCRASGNIHNYLAWYQQKQGKSPQLLVYNAKTLADGVPSRFSGSGSGTQYSLKINSLQPEDFGSYYCQHFWSTPYTFGGGTKLEIK",–
binds,binds,"86E5HL (scFv, periplasmic preparation) scFv: EVQLLESGGGLVQPGGSLKLSCAASGFDFSRSWMSWVRQAPGKGLEWIGEINPDSSTINYTPSLKDKFIISRDNAKNTLYLQMSKVRSEDTALYYCAGGYYRYPYYYTMDYWGQGTTVTVSSGGGGSGGGGSGGGGSELQMTQSPASLSASVGETVTITCRASENIYSYLAWYQQKQGKSPQLLVYNAKTLAEGVPSRFSGSGSRTQYSLKINSLQPEDFGSYYCQHFWSTPYTFGGGTKLEIK",–
binds,binds,"86F2HL (scFv, periplasmic preparation) scFv: EVQLLESGGGLVQPGGSLKLSCAASGFDFSTYWMSWVRQAPGKGLEWIGEINPDSSTVNYTPSLKDKFIISRDNAKNTLYLQMTKVRSEDTALYYCAGGYYRYPYYYTMDYWGQGTTVTVSSGGGGSGGGGSGGGGSELQMTQSPASLSASVGETVTITCRASGNIHNYLAWYQQKQGKSPQLLVYNAKTLADGVPSRFSGSGSGTQYSLKINSLQPEDFGSYYCQHFWSTPYTFGGGTKLEIK",–
binds,binds,"86C12HL (scFv, periplasmic preparation) scFv: EVQLLESGGGLVQPGGSLKLSCAASGFDFSRSWMSWVRQAPGKGLEWIGEINPDSSTINYTPSLKDKFIISRDNAKNTLYLQMSKVRSEDTALYYCAGGYYRYPYYYTMDYWGQGTTVTVSSGGGGSGGGGSGGGGSELQMTQSPASLSASVGETVTITCRASGNIHNYLAWYQQKQGKSPQLLVYNAKTLADGVPSRFSGSGSGTQYSLKINSLQPEDFGSYYCQHFWSTPYTFGGGTKLEIK",–
binds,binds,"86D6HL (scFv, periplasmic preparation) scFv: EVQLLESGGGLVQPGGSLKLSCAASGFDFSTYWMSWVRQAPGKGLEWIGEINPDSSTINYTPSLKDKFIISRDNAKNTLYLQMTKVRPEDTALYYCAGGYYRYPYYYTMDYWGQGTTVTVSSGGGGSGGGGSGGGGSELVMTQSPASLSASVGETVTITCRASGSIHNYLAWYQQKQGKSPQLLVYNAKTLADGVPSRFSGSGSGTQYSLKINSLQPEDFGSYYCQHFWSTPYTFGGGTKLEIK",–
–,–,"MCSP-G4 HLP x E2M HLP (bispecific antibody, C-terminal His6 tag added) QVQLVQSGAEVKRPGASMKVSCKASGYTFTNYYIHWVRQAPGQGLEWMGWINPNSGATNYAQKFQGRVTMTRDTSTSTVYMELSSLRSEDTAVYYCAKSWVSWFASWGQGTLVTVSSGGGGSGGGGSGGGGSELVMTQSPDSLAVSLGERATINCKSSQSVLNSSNNRNYLAWYQQKPGQPPKLLIYWASTRESGVPDRFSGSGSGTDFTLTISGLQAEDVAVYYCQQHYSTPFTFGPGTKVDIKSGGGGSEVQLLESGGGLVQPGGSLKLSCAASGFTFNGYAMNWVRQAPGKGLEWVARIRSKYNNYATYYADSVKERFTISRDDSKNTAYLQMNNLKTEDTAVYYCVRHRNFGNSYLSWFAYWGQGTLVTVSSGGGGSGGGGSGGGGSELVVTQEPSLTVSPGGTVTLTCRSSTGAVTSGYYPNWVQQKPGQAPRGLIGATDMRPSGTPARFSGSLLGGKAALTLSGVQPEDEAEYYCALWYSNRWVFGGGTKLTVL",binding result [7]: binds
